Experiments:
[1] = biological target: T1, human CD22-beta-ECD-His tagged soluble antigen (human, UniProt P20273 22-681); assay: SPR (BIACORE 3000), antibody coupled to the chip, soluble CD22-beta-ECD-His injected, 25 C
T1 construct: also called soluble CD22 extracellular domain (ECD); Soluble Human CD22
T1 sequence: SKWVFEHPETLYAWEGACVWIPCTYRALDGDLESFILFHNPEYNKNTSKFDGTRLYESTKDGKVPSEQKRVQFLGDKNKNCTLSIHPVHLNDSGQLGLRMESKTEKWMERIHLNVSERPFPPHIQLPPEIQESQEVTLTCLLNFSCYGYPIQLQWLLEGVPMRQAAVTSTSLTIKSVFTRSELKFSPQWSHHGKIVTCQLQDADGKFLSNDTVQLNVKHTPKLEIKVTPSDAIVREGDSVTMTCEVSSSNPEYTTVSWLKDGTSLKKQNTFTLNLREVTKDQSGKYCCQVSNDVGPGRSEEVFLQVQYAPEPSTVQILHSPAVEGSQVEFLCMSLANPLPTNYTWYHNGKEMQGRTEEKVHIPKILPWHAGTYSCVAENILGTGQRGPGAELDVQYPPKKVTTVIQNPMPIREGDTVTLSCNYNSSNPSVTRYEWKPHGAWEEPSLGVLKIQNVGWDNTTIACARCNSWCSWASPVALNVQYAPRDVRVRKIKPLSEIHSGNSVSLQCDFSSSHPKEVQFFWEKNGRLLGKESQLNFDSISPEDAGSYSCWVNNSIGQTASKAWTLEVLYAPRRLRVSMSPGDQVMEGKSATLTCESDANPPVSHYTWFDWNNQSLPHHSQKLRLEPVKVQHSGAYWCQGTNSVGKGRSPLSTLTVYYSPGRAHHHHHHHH
Method: The binding affinity of murine and humanized 10F4 antibody for soluble CD22 extracellular domain (ECD) was determined by surface plasmon resonance measurement using a BIACORE® 3000 system (Biacore, Inc., Piscataway, N.J.). Briefly, carboxymethylated dextran biosensor chips (CMS, Biacore Inc.) were activated with N-ethyl-N′-(3-dimethylaminopropyl)-carbodiimide hydrochloride (EDC) and N-hydroxysuccinimide (NHS) according to the supplier's instructions. These activated chips were coated with anti-CD22 IgG1 antibody 10F4 (murine or humanized) by dilution to 5 μg/ml with 10 mM sodium acetate, pH 4.8, before injection at a flow rate of […] to achieve approximately 500 response units (RU) of coupled antibody. Next, 1M ethanolamine was injected to block unreacted groups. […] Association rates (kₒₙ) and dissociation rates (koff) were calculated using a simple one-to-one Langmuir binding model (BIAevaluation Software version 3.2). The equilibrium dissociation constant (Kd) was calculated as the ratio koff/kₒₙ. Anti-CD22 antibody, RFB4, was used as a control (Chemicon International, Inc., Temecula, Calif., catalog no. CBL147).

[2] = biological target: T2, full length human CD22 (CD22beta) expressed on the surface of CHO cells (human, UniProt P20273 22-847); assay: cell-based competitive binding of 125I-labelled against unlabelled antibody on CHO cells, 4 h at 4 C, Scatchard analysis
T2 construct: CHO cells stably expressing full length human CD22; also called CD22beta (control cells)
Method: (§1) Briefly, CHO cells stably expressing full length human CD22 (SEQ ID NO:27) or cynomolgus monkey (cyno) CD22 (SEQ ID NO:31). […] A cell-based, competitive binding assay was performed using serially diluted, unlabeled anti-CD22 antibody. Antibodies were allowed to bind to the cells for 4 hours at 4° C. Binding affinity, KD, of the antibodies was determined in accordance with standard Scatchard analysis performed utilizing a non-linear curve fitting program (see, for example, Munson et al., Anal Biochem, 107: 220-239, 1980).

[3] = biological target: T3, cynomolgus monkey (cyno) CD22 expressed on the surface of CHO cells (cynomolgus monkey); assay: as above
T3 construct: residues 1-19 (signal) should be removed
T3 chain: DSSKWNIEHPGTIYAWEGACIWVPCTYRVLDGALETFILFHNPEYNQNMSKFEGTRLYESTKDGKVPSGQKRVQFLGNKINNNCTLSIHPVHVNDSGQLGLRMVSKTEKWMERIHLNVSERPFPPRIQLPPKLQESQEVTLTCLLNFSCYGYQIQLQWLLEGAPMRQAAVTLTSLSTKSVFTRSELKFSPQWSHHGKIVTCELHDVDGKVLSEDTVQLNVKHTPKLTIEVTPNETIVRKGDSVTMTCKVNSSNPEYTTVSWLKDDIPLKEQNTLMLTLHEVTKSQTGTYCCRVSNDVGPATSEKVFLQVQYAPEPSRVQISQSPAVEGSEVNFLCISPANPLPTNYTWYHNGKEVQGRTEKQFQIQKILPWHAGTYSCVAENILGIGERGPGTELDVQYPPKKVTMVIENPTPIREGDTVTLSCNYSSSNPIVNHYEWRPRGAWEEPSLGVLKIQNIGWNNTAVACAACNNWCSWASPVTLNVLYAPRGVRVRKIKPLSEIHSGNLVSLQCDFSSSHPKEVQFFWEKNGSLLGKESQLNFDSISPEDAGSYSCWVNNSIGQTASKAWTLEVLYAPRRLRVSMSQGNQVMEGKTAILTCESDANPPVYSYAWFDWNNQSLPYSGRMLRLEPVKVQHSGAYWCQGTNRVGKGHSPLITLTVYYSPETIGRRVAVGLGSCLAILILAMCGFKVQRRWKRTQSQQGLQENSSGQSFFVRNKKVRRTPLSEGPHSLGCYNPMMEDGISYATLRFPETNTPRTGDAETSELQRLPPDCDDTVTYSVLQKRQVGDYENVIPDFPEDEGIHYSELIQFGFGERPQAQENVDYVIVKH
Method: as §1

Kd [1]: 15 nM
koff [1]: 0.00028 s⁻¹
kon [1]: 19000 M⁻¹ s⁻¹
Kd [2]: 2.4 nM
Kd [3]: 2.3 nM
B1: murine anti-human CD22 10F4.4.1 monoclonal antibody (antibody, V domains shown)
VH: QVQLQQSGPELVKPGASVKISCKASGYEFSRSWMNWVKQRPGQGREWIGRIYPGDGDTNYSGKFKGKATLTADKSSSTAYMQLSSLTSVDSAVYFCARDGSSWDWYFDVWGAGTTVTVSS
VL: DILMTQTPLSLPVSLGDQASISCRSSQSIVHSNGNTFLEWYLQKPGQSPKLLIYKVSNRFSGVPDRFSGSGSGTDFTLKISRVEAEDLGVYYCFQGSQFPYTFGGGTKVEIK
notes: Murine hybridoma antibody (ATCC PTA-7621); also called mu 10F4; Mu 10F4.4.1

Source: US20130171170A1 (published 2013)
